Key:
recombinant human IGF-2 [1] = target: T1, recombinant human IGF-2 (human, UniProt P01344 25-91); test: SPR (Biacore), IGF coating method, bivalent antibody injected (avidity)
T1 construct: mature; also called insulin-like growth factor-2
Experimental: (§1) Affinity constants are also determined for binding of the IGF antibodies to human IGF-1 and IGF-2 using a method where the IGF ligands are coated to the Biacore sensor chip and a range of antibody concentrations injected. The approximately 30-50-fold increase in the binding constants using this method compared with the initial antibody capture method is likely due to an avidity effect where both antibody binding domains interact with an IGF molecule.

recombinant human IGF-1 [2] = target: T2, recombinant human IGF-1 (human, UniProt P05019 49-118); test: as above
T2 construct: mature; also called insulin-like growth factor-1
Experimental: as §1

biotinylated IGF-1 [3] = target: T3, biotinylated IGF-1 (UniProt P05019 49-118, biotinylated (site not stated)); test: competition ELISA: antibody blocks binding of biotinylated IGF-1 to coated IGF-1R, fluorescence readout
T3 construct: also called IGF-1 ligand
Experimental: To identify IGF antibodies that neutralize the ability of IGF-1 and IGF-2 to bind to the IGF-1R, an ELISA is established by coating plates with 1.5 μg/ml recombinant human IGF-1R (R&D Systems) which allows the binding of biotinylated IGF-1 and biotinylated IGF-2. Bound IGF-1 or IGF-2 is detected using alkaline phosphatase-conjugated streptavidin (1:10,000 dilution) (Roche). […] Antibody Fab fragments that block the binding of biotinylated ligand are identified by a reduction in fluorometric signal.

murine IGF-2 [4] = target: T4, murine IGF-2 (murine, UniProt P09535 25-91); test: SPR (Biacore), antibody capture method, IGF antigen injected
T4 construct: bought reagent; also called mouse IGF-2
Experimental: (§2) The sensor chip is coated with approximately 1000 RU of the reference antibody in flow cell 1 and approximately 1000 RU of a rabbit-anti-human Fc-gamma-specific antibody in flow cell 2 using the coupling reagents from an amine coupling kit. A target of 1000 RU is set in the surface preparation wizard of the Biacore 3000 software at a flow rate of 5 μl/min. Running buffer used is HBS-EP. […] The IGF antigens are diluted to 500, 250, 125, 62.5 and 31.3 nM in running buffer (HCB) and the different antigen dilutions are run singly over Fc1 and Fc2 with random order. Blank runs using running buffer only are run in-between. A blank run curve is subtracted from each binding curve before affinity analysis. Data evaluation is performed using the BIAevaluation software (version 4.1, Biacore, Freiburg, Germany). The dissociation and association phases of the kinetics are fitted separately. For the separate fit of the kdiss values a time-frame of the initial 200-300 seconds in the dissociation phase is used (range of steady decrease of signal). For the separate fit of the kₐₛₛ values, initial time frames of approx 100 seconds are used (range of steady increase of signal) and for calculation the individual kdiss values are used with the 1:1 Langmuir association model. The average values with the standard deviations of the kinetic data together with the corresponding dissociation (KD) and association (KA) constants are calculated.
(§3) The analysis is initially performed by capturing the IGF antibodies on the sensor chip and injecting a range of antigen concentrations, thereby eliminating the possibility of an avidity effect.

rat IGF-2 [5] = target: T5, rat IGF-2 (rat, UniProt P01346 25-91); test: as above
T5 construct: bought reagent
Experimental: as §2, §3

murine IGF-1 [6] = target: T6, murine IGF-1 (murine, UniProt P05017 49-118); test: as above
T6 construct: bought reagent; also called mouse IGF-1
Experimental: as §2, §3

recombinant human IGF-2 [7] = target: T1, recombinant human IGF-2; test: as above
Experimental: as §2, §3

rat IGF-1 [8] = target: T7, rat IGF-1 (rat, UniProt P08025 49-118); test: as above
T7 construct: bought reagent
Experimental: as §2, §3

recombinant human IGF-1 [9] = target: T2, recombinant human IGF-1; test: as above
Experimental: as §2, §3

biotinylated IGF-1 [10] = target: T3, biotinylated IGF-1; test: competition ELISA: antibody titrated against biotinylated IGF-1 binding to coated IGF-1R; antibody 40186; mass concentration
recombinant human IGF-1 [11] = target: T2, recombinant human IGF-1; test: SPR (Biacore), IGF coating method, bivalent antibody injected (avidity); IGF coated on the chip, bivalent antibody injected (avidity)
[12] = target: recombinant human insulin (human, UniProt P01308 25-54; P01308 90-110); test: ELISA titration of the IgG1 on coated human insulin, OD 450
recombinant human IGF-2 [13] = target: T1, recombinant human IGF-2; test: ELISA titration of the IgG1 on coated human IGF-2, OD 450
murine IGF-2 [14] = target: T4, murine IGF-2; test: ELISA titration of the IgG1 on coated murine IGF-2, OD 450
rat IGF-1 [15] = target: T7, rat IGF-1; test: ELISA titration of the IgG1 on coated rat IGF-1, OD 450
rat IGF-2 [16] = target: T5, rat IGF-2; test: ELISA titration of the IgG1 on coated rat IGF-2, OD 450
murine IGF-1 [17] = target: T6, murine IGF-1; test: ELISA titration of the IgG1 on coated murine IGF-1, OD 450
biotinylated IGF-1 [18] = target: T3, biotinylated IGF-1; test: competition ELISA: antibody titrated against biotinylated IGF-1 binding to coated IGF-1R; antibody 40183; mass concentration

T7 sequence (P08025 49-118 limits assumed): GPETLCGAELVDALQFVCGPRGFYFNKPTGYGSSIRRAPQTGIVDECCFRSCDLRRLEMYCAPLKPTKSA
T5 sequence (P01346 25-91 limits assumed): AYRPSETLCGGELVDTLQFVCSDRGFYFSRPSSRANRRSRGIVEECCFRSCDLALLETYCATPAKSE
recombinant human insulin, sequence (P01308 25-54 limits assumed, chain 1 of 2): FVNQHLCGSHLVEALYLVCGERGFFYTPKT
recombinant human insulin, sequence (P01308 90-110 limits assumed, chain 2 of 2): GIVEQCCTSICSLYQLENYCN

B1: antibody 40186 (antibody, human IgG1, lambda, V domains shown)
VH: QVELVESGGGLVQPGGSLRLSCAASGFTFSNYWMHWVRQAPGKGLEWVSGISGWSSWTYYADSVKGRFTISRDNSKNTLYLQMNSLRAEDTAVYYCARFGIDAYTKVYFDYWGQGTLVTVSS
VL: DIELTQPPSVSVAPGQTARISCSGDNIPLKYVSWYQQKPGQAPVLVIHDDNKRPSGIPERFSGSNSGNTATLTISGTQAEDEADYYCQSWASTGVVFGGGTKLTVLG
notes: Fully human IgG1 / Ig lambda from the HuCAL Gold library
Ka (recombinant human IGF-2 [1]): 1.45e+10 M⁻¹
Kd (recombinant human IGF-2 [1]): 0.072 nM
koff (recombinant human IGF-2 [1]): 0.000164 s⁻¹
kon (recombinant human IGF-2 [1]): 2.26e+06 M⁻¹ s⁻¹
Kd (recombinant human IGF-1 [2]): 0.14 nM
koff (recombinant human IGF-1 [2]): 0.00023 s⁻¹
kon (recombinant human IGF-1 [2]): 2.1e+06 M⁻¹ s⁻¹
IC50 (read off the curve) (biotinylated IGF-1 [3]): ~5 ng/mL
Ka (murine IGF-2 [4]): 1.08e+08 M⁻¹
Kd (murine IGF-2 [4]): 9.56 nM
koff (murine IGF-2 [4]): 0.00586 s⁻¹
kon (murine IGF-2 [4]): 632000 M⁻¹ s⁻¹
Ka (rat IGF-2 [5]): 1.67e+08 M⁻¹
Kd (rat IGF-2 [5]): 6.49 nM
koff (rat IGF-2 [5]): 0.00351 s⁻¹
kon (rat IGF-2 [5]): 602000 M⁻¹ s⁻¹
Ka (murine IGF-1 [6]): 1.44e+08 M⁻¹
Kd (murine IGF-1 [6]): 7.1 nM
koff (murine IGF-1 [6]): 0.00329 s⁻¹
kon (murine IGF-1 [6]): 466000 M⁻¹ s⁻¹
Ka (recombinant human IGF-2 [7]): 2.86e+08 M⁻¹
Kd (recombinant human IGF-2 [7]): 3.62 nM
koff (recombinant human IGF-2 [7]): 0.00362 s⁻¹
kon (recombinant human IGF-2 [7]): 1.03e+06 M⁻¹ s⁻¹
Ka (rat IGF-1 [8]): 3.67e+08 M⁻¹
Kd (rat IGF-1 [8]): 2.76 nM
koff (rat IGF-1 [8]): 0.00301 s⁻¹
kon (rat IGF-1 [8]): 1.1e+06 M⁻¹ s⁻¹
Ka (recombinant human IGF-1 [9]): 2.16e+08 M⁻¹
Kd (recombinant human IGF-1 [9]): 4.66 nM
koff (recombinant human IGF-1 [9]): 0.0027 s⁻¹
kon (recombinant human IGF-1 [9]): 581000 M⁻¹ s⁻¹
IC50 (biotinylated IGF-1 [10]): ~5 ng/mL
Ka (recombinant human IGF-1 [11]): 1.22e+10 M⁻¹
binding result [12]: no binding (tested: 100 ng/ml)

B2: antibody 40183 (antibody, human IgG1, lambda, V domains shown)
VH: QVELVESGGGLVQPGGSLRLSCAASGFTWSSFAMSWVRQAPGKGLEWVSYISYLGSYTGYADSVKGRFTISRDNSKNTLYLQMNSLRAEDTAVYYCARGTKFDYWGQGTLVTVSS
VL: DIVLTQPPSVSGAPGQRVTISCTGSSSNIGTYDVHWYQQLPGTAPKLLIYSNSKRPSGVPDRFSGSKSGTSASLAITGLQSEDEADYYCSITRVFGGGTKLTVLG
notes: Fully human IgG1 / Ig lambda
binding result (recombinant human IGF-2 [13]): binds
IC50 (read off the curve) (biotinylated IGF-1 [3]): ~3 ng/mL
binding result (murine IGF-2 [14]): binds
binding result (rat IGF-1 [15]): binds
binding result (rat IGF-2 [16]): binds
binding result (murine IGF-1 [17]): binds
IC50 (biotinylated IGF-1 [18]): ~5 ng/mL
binding result [12]: no binding (tested: 100 ng/ml)

— patent publication US20100196395A1 (Boehringer Ingelheim, published 2010)
